{"source": "patent US20260327291", "about": "(published 2026)", "binders": {"B1": {"name": "WT anti-N antibody (antibody, V domains shown)", "VH": "QIQLVQSGPELKKPGETVKISCKASGFTFTDYAMNWVKQAPGKGLKWMGWLNTYSGEPTYAEDFKGRFAFSLETSASTAYLQINNLKNEDTATYFCARTAILRSYFDYWGQGTTLTVSS", "VL": "DIVMTQSHKFMSTSVGDRVSITCKASEDLSTALAWCQQKPGQSPKLLIYWGSTRHSGVPDRFTGIRSGTDYTLTISSVQAEDLALYYCQQHWSTPLTFGAGTKLELKR"}}, "target": "2019-nCoV N protein (SARS-CoV-2, UniProt P0DTC9)", "test": "BLI", "data": [{"binder": "B1", "values": [{"measurement": "Kd", "result": 7.25, "unit": "nM"}]}]}
